The source of these data is patent CN114316057A (SHENZHEN PEOPLE HOSPITAL, dated 2022).

Test [1] has as its target T1, TOM20-Human 胞质结构域蛋白(25-145) (human, UniProt Q15388 25-145).
T1 construct: range 25-145; A purification tag (Ni column) is implied but not described; also called TOM20胞质结构域
T1 sequence (looked up): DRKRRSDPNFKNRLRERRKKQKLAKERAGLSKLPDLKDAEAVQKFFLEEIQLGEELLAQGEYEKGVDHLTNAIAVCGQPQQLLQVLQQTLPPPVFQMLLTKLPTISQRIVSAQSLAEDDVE
In words: phage clone ELISA, crude phage nanobody extract on coated TOM20 against BSA control. For orientation: In an ELISA, binding on a coated surface is turned into a signal by an enzyme label.

In test [2] the target is T2, TOM20-Mouse 胞质结构域 (mouse, UniProt Q9DCC8 25-145).
T2 construct: domain: 胞质结构域; also called TOM20(鼠)胞质结构域
T2 sequence (looked up): T1 sequence (looked up) with E61D
In words: SPR (Biacore), antigen immobilised on chip, nanobody as analyte. (Surface plasmon resonance follows binding to a sensor surface in real time, without labels.)

For test [3], the target named is T1, TOM20-Human 胞质结构域蛋白(25-145). Described as above.

As usually defined, the Kd is the equilibrium constant for the complex coming apart.

Changes are numbered by the printed parent chain.

B1: P2B7号纳米抗体 (VHH)
VHH: AVQLVESGGGLVQAGGSLRLSCVASGSTFSNFVMGWYRQAPGKQRVLVATISSGGSTNYADSVKGRFTISRDNTKNTVYLQMNSLKPEDTSVYYCNARRGSVIVPTLAYDYWGQGTQVTVSS
notes: Alpaca naive-library nanobody expressed in E. coli with an HA tag for detection and purified on Ni resin; also called P2B7纳米抗体; TOM20纳米抗体; not shown: fused HA tag and vector-derived His tag (PET-14B or PET28a-sumo)
Consider B1, for which the TOM20/BSA ratio in test [1] was ~3 fold. The results for the Kd in test [2] and in test [3] were 413 nM and 44.8 nM, respectively.
